Test results: PMC10487539, “Glutaryl-CoA Dehydrogenase Misfolding in Glutaric Acidemia Type 1” (International Journal of Molecular Sciences, 2023)

Experiments:
[1] = target: the molecule itself; experiment: SEC; self-association; MBPTrap eluate on HiLoad 16/600 Superdex 200, 20 mM HEPES pH 7.0, 200 mM NaCl, 4 °C; higher oligomers or aggregates 45-55 mL, tetramers 65-75 mL, dimers 75-85 mL, monomers 85-95 mL
[2] = target: the molecule itself; experiment: native gel or EMSA; self-association; BN-PAGE and Western blot of proteins purified by affinity chromatography; bands of monomer, dimer and tetramer as percent of total
[3] = target: the molecule itself; experiment: SEC; self-association; as a1 but in 10 mM potassium phosphate buffer with 10% glycerol (used for A433V only), 4 °C

| Protein | binding result [2] | binding result [1] | other results |
| --- | --- | --- | --- |
| recombinant human glutaryl-CoA dehydrogenase, wild type, MBP fusion (enzyme, glutaryl-CoA dehydrogenase (GCDH), human cDNA in pMAL-c2X; the precursor has 438 amino acids and the first 44 are cut on mitochondrial import; No cleavage of MBP is described; The printed masses (tetramer 173.2 kDa) count without MBP; also called GCDH; WT; not shown: MBP, N-terminal, kept) RPEFDWQDPLVLEEQLTTDEILIRDTFRTYCQERLMPRILLANRNEVFHREIISEMGELGVLGPTIKGYGCAGVSSVAYGLLARELERVDSGYRSAMSVQSSLVMHPIYAYGSEEQRQKYLPQLAKGELLGCFGLTEPNSGSDPSSMETRAHYNSSNKSYTLNGTKTWITNSPMADLFVVWARCEDGCIRGFLLEKGMRGLSAPRIQGKFSLRASATGMIIMDGVEVPEENVLPGASSLGGPFGCLNNARYGIAWGVLGASEFCLHTARQYALDRMQFGVPLARNQLIQKKLADMLTEITLGLHACLQLGRLKDQDKAAPEMVSLLKRNNCGKALDIARQARDMLGGNGISDEYHVIRHAMNLEAVNTYEGTHDIHALILGRAITGIQAFTASK |  |  | stoichiometry N [1]: 4 |
| recombinant human GCDH variant R227P, MBP fusion (enzyme, glutaryl-CoA dehydrogenase (GCDH), human cDNA in pMAL-c2X, patient variant; No cleavage of MBP is described; also called c.680G > C; source: could not be purified by size-exclusion chromatography; not shown: MBP, N-terminal, kept) RPEFDWQDPLVLEEQLTTDEILIRDTFRTYCQERLMPRILLANRNEVFHREIISEMGELGVLGPTIKGYGCAGVSSVAYGLLARELERVDSGYRSAMSVQSSLVMHPIYAYGSEEQRQKYLPQLAKGELLGCFGLTEPNSGSDPSSMETRAHYNSSNKSYTLNGTKTWITNSPMADLFVVWAPCEDGCIRGFLLEKGMRGLSAPRIQGKFSLRASATGMIIMDGVEVPEENVLPGASSLGGPFGCLNNARYGIAWGVLGASEFCLHTARQYALDRMQFGVPLARNQLIQKKLADMLTEITLGLHACLQLGRLKDQDKAAPEMVSLLKRNNCGKALDIARQARDMLGGNGISDEYHVIRHAMNLEAVNTYEGTHDIHALILGRAITGIQAFTASK | binds |  |  |
| recombinant human GCDH variant A421V, MBP fusion (enzyme, glutaryl-CoA dehydrogenase (GCDH), human cDNA in pMAL-c2X, patient variant; No cleavage of MBP is described; also called c.1262C > T; not shown: MBP, N-terminal, kept) RPEFDWQDPLVLEEQLTTDEILIRDTFRTYCQERLMPRILLANRNEVFHREIISEMGELGVLGPTIKGYGCAGVSSVAYGLLARELERVDSGYRSAMSVQSSLVMHPIYAYGSEEQRQKYLPQLAKGELLGCFGLTEPNSGSDPSSMETRAHYNSSNKSYTLNGTKTWITNSPMADLFVVWARCEDGCIRGFLLEKGMRGLSAPRIQGKFSLRASATGMIIMDGVEVPEENVLPGASSLGGPFGCLNNARYGIAWGVLGASEFCLHTARQYALDRMQFGVPLARNQLIQKKLADMLTEITLGLHACLQLGRLKDQDKAAPEMVSLLKRNNCGKALDIARQARDMLGGNGISDEYHVIRHAMNLEAVNTYEGTHDIHVLILGRAITGIQAFTASK |  | binds |  |
| recombinant human GCDH variant V400M, MBP fusion (enzyme, glutaryl-CoA dehydrogenase (GCDH), human cDNA in pMAL-c2X, patient variant; No cleavage of MBP is described; also called c.1198G > A; not shown: MBP, N-terminal, kept) RPEFDWQDPLVLEEQLTTDEILIRDTFRTYCQERLMPRILLANRNEVFHREIISEMGELGVLGPTIKGYGCAGVSSVAYGLLARELERVDSGYRSAMSVQSSLVMHPIYAYGSEEQRQKYLPQLAKGELLGCFGLTEPNSGSDPSSMETRAHYNSSNKSYTLNGTKTWITNSPMADLFVVWARCEDGCIRGFLLEKGMRGLSAPRIQGKFSLRASATGMIIMDGVEVPEENVLPGASSLGGPFGCLNNARYGIAWGVLGASEFCLHTARQYALDRMQFGVPLARNQLIQKKLADMLTEITLGLHACLQLGRLKDQDKAAPEMVSLLKRNNCGKALDIARQARDMLGGNGISDEYHMIRHAMNLEAVNTYEGTHDIHALILGRAITGIQAFTASK | binds |  |  |
| recombinant human GCDH variant M263V, MBP fusion (enzyme, glutaryl-CoA dehydrogenase (GCDH), human cDNA in pMAL-c2X, patient variant; No cleavage of MBP is described; also called c.787A > G; not shown: MBP, N-terminal, kept) RPEFDWQDPLVLEEQLTTDEILIRDTFRTYCQERLMPRILLANRNEVFHREIISEMGELGVLGPTIKGYGCAGVSSVAYGLLARELERVDSGYRSAMSVQSSLVMHPIYAYGSEEQRQKYLPQLAKGELLGCFGLTEPNSGSDPSSMETRAHYNSSNKSYTLNGTKTWITNSPMADLFVVWARCEDGCIRGFLLEKGMRGLSAPRIQGKFSLRASATGVIIMDGVEVPEENVLPGASSLGGPFGCLNNARYGIAWGVLGASEFCLHTARQYALDRMQFGVPLARNQLIQKKLADMLTEITLGLHACLQLGRLKDQDKAAPEMVSLLKRNNCGKALDIARQARDMLGGNGISDEYHVIRHAMNLEAVNTYEGTHDIHALILGRAITGIQAFTASK | binds |  |  |
| recombinant human GCDH variant E414K, MBP fusion (enzyme, glutaryl-CoA dehydrogenase (GCDH), human cDNA in pMAL-c2X, patient variant; No cleavage of MBP is described; also called c.1240G > A; not shown: MBP, N-terminal, kept) RPEFDWQDPLVLEEQLTTDEILIRDTFRTYCQERLMPRILLANRNEVFHREIISEMGELGVLGPTIKGYGCAGVSSVAYGLLARELERVDSGYRSAMSVQSSLVMHPIYAYGSEEQRQKYLPQLAKGELLGCFGLTEPNSGSDPSSMETRAHYNSSNKSYTLNGTKTWITNSPMADLFVVWARCEDGCIRGFLLEKGMRGLSAPRIQGKFSLRASATGMIIMDGVEVPEENVLPGASSLGGPFGCLNNARYGIAWGVLGASEFCLHTARQYALDRMQFGVPLARNQLIQKKLADMLTEITLGLHACLQLGRLKDQDKAAPEMVSLLKRNNCGKALDIARQARDMLGGNGISDEYHVIRHAMNLEAVNTYKGTHDIHALILGRAITGIQAFTASK |  | binds |  |
| recombinant human GCDH variant A433E, MBP fusion (enzyme, glutaryl-CoA dehydrogenase (GCDH), human cDNA in pMAL-c2X, patient variant; No cleavage of MBP is described; also called c.1298C > A; not shown: MBP, N-terminal, kept) RPEFDWQDPLVLEEQLTTDEILIRDTFRTYCQERLMPRILLANRNEVFHREIISEMGELGVLGPTIKGYGCAGVSSVAYGLLARELERVDSGYRSAMSVQSSLVMHPIYAYGSEEQRQKYLPQLAKGELLGCFGLTEPNSGSDPSSMETRAHYNSSNKSYTLNGTKTWITNSPMADLFVVWARCEDGCIRGFLLEKGMRGLSAPRIQGKFSLRASATGMIIMDGVEVPEENVLPGASSLGGPFGCLNNARYGIAWGVLGASEFCLHTARQYALDRMQFGVPLARNQLIQKKLADMLTEITLGLHACLQLGRLKDQDKAAPEMVSLLKRNNCGKALDIARQARDMLGGNGISDEYHVIRHAMNLEAVNTYEGTHDIHALILGRAITGIQEFTASK |  | binds |  |
| recombinant human GCDH variant R138G, MBP fusion (enzyme, glutaryl-CoA dehydrogenase (GCDH), human cDNA in pMAL-c2X, patient variant; No cleavage of MBP is described; also called c.412A > G; not shown: MBP, N-terminal, kept) RPEFDWQDPLVLEEQLTTDEILIRDTFRTYCQERLMPRILLANRNEVFHREIISEMGELGVLGPTIKGYGCAGVSSVAYGLLARELERVDSGYGSAMSVQSSLVMHPIYAYGSEEQRQKYLPQLAKGELLGCFGLTEPNSGSDPSSMETRAHYNSSNKSYTLNGTKTWITNSPMADLFVVWARCEDGCIRGFLLEKGMRGLSAPRIQGKFSLRASATGMIIMDGVEVPEENVLPGASSLGGPFGCLNNARYGIAWGVLGASEFCLHTARQYALDRMQFGVPLARNQLIQKKLADMLTEITLGLHACLQLGRLKDQDKAAPEMVSLLKRNNCGKALDIARQARDMLGGNGISDEYHVIRHAMNLEAVNTYEGTHDIHALILGRAITGIQAFTASK | binds |  |  |
| recombinant human GCDH variant R88C, MBP fusion (enzyme, glutaryl-CoA dehydrogenase (GCDH), human cDNA in pMAL-c2X, patient variant; No cleavage of MBP is described; also called c.262C > T; not shown: MBP, N-terminal, kept) RPEFDWQDPLVLEEQLTTDEILIRDTFRTYCQERLMPRILLANCNEVFHREIISEMGELGVLGPTIKGYGCAGVSSVAYGLLARELERVDSGYRSAMSVQSSLVMHPIYAYGSEEQRQKYLPQLAKGELLGCFGLTEPNSGSDPSSMETRAHYNSSNKSYTLNGTKTWITNSPMADLFVVWARCEDGCIRGFLLEKGMRGLSAPRIQGKFSLRASATGMIIMDGVEVPEENVLPGASSLGGPFGCLNNARYGIAWGVLGASEFCLHTARQYALDRMQFGVPLARNQLIQKKLADMLTEITLGLHACLQLGRLKDQDKAAPEMVSLLKRNNCGKALDIARQARDMLGGNGISDEYHVIRHAMNLEAVNTYEGTHDIHALILGRAITGIQAFTASK |  | binds |  |
| recombinant human GCDH variant A433V, MBP fusion (enzyme, glutaryl-CoA dehydrogenase (GCDH), human cDNA in pMAL-c2X, patient variant; No cleavage of MBP is described; also called c.1298C > T; not shown: MBP, N-terminal, kept) RPEFDWQDPLVLEEQLTTDEILIRDTFRTYCQERLMPRILLANRNEVFHREIISEMGELGVLGPTIKGYGCAGVSSVAYGLLARELERVDSGYRSAMSVQSSLVMHPIYAYGSEEQRQKYLPQLAKGELLGCFGLTEPNSGSDPSSMETRAHYNSSNKSYTLNGTKTWITNSPMADLFVVWARCEDGCIRGFLLEKGMRGLSAPRIQGKFSLRASATGMIIMDGVEVPEENVLPGASSLGGPFGCLNNARYGIAWGVLGASEFCLHTARQYALDRMQFGVPLARNQLIQKKLADMLTEITLGLHACLQLGRLKDQDKAAPEMVSLLKRNNCGKALDIARQARDMLGGNGISDEYHVIRHAMNLEAVNTYEGTHDIHALILGRAITGIQVFTASK |  |  | binding result [3]: binds |
